Measurements from paper PMC11058771.

Target: mouse teneurin-3 A1B1 complete extracellular domain (ECD, residues 342-2715) (mouse) (UniProt Q9WTS6)
Assay: SEC-MALS; purified ECD, 0.5 mg/mL in 20 mM HEPES pH 7.8, 150 mM NaCl, 2 mM CaCl2, Superose6 Increase 10/300 GL; also SDS-PAGE with or without beta-mercaptoethanol; covalent (disulphide-linked) dimer

mouse teneurin-3 A1B1 complete extracellular domain (ECD, residues 342-2715), Q9WTS6-1 342-2715
stoichiometry N: 2
